According to US20230348564A1, “ANTI-CANCER PROTEINS” (UNICHEM LABORATORIES LTD, priority 2020, published 2023):

What was measured:
[1] = system: EA.hy926 (Human endothelial cells); assay: endothelial cell proliferation by MTT assay; assay type: cell-based; conditions: for % inhibition of FBS stimulated cell growth / Mean (MTT absorbance): 72 h
Procedure: The cell line used for the study was EA.hy926 (Human endothelial cells) which was procured from National Centre for Cell Science, Pune (India). The cell line was maintained in DMEM+10% FBS (heat inactivated) at 37° C. with 5% CO2, and 95% humidity. […] Untreated cells with complete medium (10% FBS) served as complete medium control, cells with sera free medium served as SFM control and the cells treated with Paclitaxel served as positive control.
The percentage cytotoxicity corresponding to each treatment was calculated.

[2] = system: PANC-1; assay: Annexin-V staining (flow cytometry); assay type: cell-based, Human; conditions: 24 h
Procedure: (§1) The cell lines were maintained in DMEM+10% FBS (heat inactivated) at 37° C. with 5% CO2, and 95% humidity. Antibiotics Penicillin (100 U/mL) and Streptomycin (100 μg/mL) were added to the medium.
(§2) The stock solution of recombinant lectin having the amino acid sequence of SEQ ID NO. […] Doxorubicin was used as positive control and stock solution was prepared in DMSO.
(§3) Cells were counted using hemocytometer and plated in culture plates at the density of 0.4×10^6 cells/well in DMEM+10% FBS in 6-well plates. Cells were incubated overnight to allow the cell recovery and exponential growth. Following overnight incubation, cells were treated with Lectin having the amino acid sequence of SEQ ID NO. 2 in DMEM+0% FBS at concentrations ranging from 2.5 μg/mL to 80 μg/mL. Untreated cells were included as Control group for sample. Cells treated with Doxorubicin were included as Positive Control group. DMSO treated cells were included as control group for Doxorubicin. After treatment, cells were incubated for a time period of 24 h.
(§4) Following incubation, the pro-apoptotic effect was estimated using Annexin assay kit as follows: Annexin reagent contains Annexin-V+7-AAD stain, which differentially labels apoptotic cells in different phases. Four populations of cells can be determined from the flow cytometric plots as follows: • a) Upper Left (UL)—7-AAD(+)/Annexin(−) or Necrotic cells • b) Upper Right (UR)—7-AAD(+)/Annexin(+) or Late apoptotic cells • c) Lower Left (LL)—7-AAD(−)/Annexin(−) or Viable/non-apoptotic cells • d) Lower Right (LR)—7-AAD(−)/Annexin(+) or Early apoptotic cells
(§5) Cells were gently harvested into pre-labeled sterile centrifuge tubes and centrifuged at 300×g for 5-7 min. Supernatant were discarded and the pellet was resuspended in 200 μl of fresh culture medium.
(§6) 100 μl of cell suspension was transferred into pre-labeled sterile centrifuge tubes.
(§7) 100 μl of Annexin-V reagent was added to each tube and incubated for 30 min at RT in dark.
(§8) Cells stained for Annexin-V were then transferred into 96-well plates and acquired on flow cytometer (Guava technologies). Percentage of cells in early apoptotic, late apoptotic and necrotic phase were determined.
(§9) Fold increase in apoptotic cells (treated with Test Items) was determined as compared to Control (untreated cells).

[3] = system: MDA-MB-231; assay: Annexin-V staining (flow cytometry); assay type: cell-based, Human; conditions: 24 h
Procedure: as §1, §2, §3, §4, §5, §6, §7, §8, §9

[4] = system: MIAPaCa-2

B1: SEQ ID NO. 2: recombinant lectin; variant of the S. rolfsii lectin amino acid sequence (reported as Rec-2 in WO 2010/095143) (protein)
chain: TYKITVRVYQTNPDAFFHPVEKTVWKYANGGTWTITDDQHVLTMGGSGTSGTLRFHADNGESFTATFGVHNYKRWCDIVTNLAADETGMVINQQYYSQKNREEARERQLSNYQVKNAKGRNFQIVYTEAEGNDLHANLIIG
modifications: In vitro synthesis
- % inhibition of FBS stimulated cell growth ([1]; 2.5 μg/mL): −9.83%
- Mean (MTT absorbance) ([1]; 2.5 μg/mL): 1.761
- % inhibition of FBS stimulated cell growth ([1]; 5 μg/mL): −12.16%
- Mean (MTT absorbance) ([1]; 5 μg/mL): 1.799
- % inhibition of FBS stimulated cell growth ([1]; 10 μg/mL): −16.59%
- Mean (MTT absorbance) ([1]; 10 μg/mL): 1.870
- inhibition of endothelial cell proliferation as compared to control ([1]; 20 μg/mL to 100 μg/mL): 15.51% to 58.53%
- % inhibition of FBS stimulated cell growth ([1]; 20 μg/mL): 15.51%
- Mean (MTT absorbance) ([1]; 20 μg/mL): 1.355
- % inhibition of FBS stimulated cell growth ([1]; 40 μg/mL): 29.22%
- Mean (MTT absorbance) ([1]; 40 μg/mL): 1.135
- % inhibition of FBS stimulated cell growth ([1]; 80 μg/mL): 56.50%
- Mean (MTT absorbance) ([1]; 80 μg/mL): 0.698
- % inhibition of FBS stimulated cell growth ([1]; 100 μg/mL): 58.53%
- Mean (MTT absorbance) ([1]; 100 μg/mL): 0.665
- % Population of cells, LL Annex− 7AAD− Viable ([2]; 2.5 μg/mL): 87.7%
- % Population of cells, LR Annex+ 7AAD− Early apoptotic ([2]; 2.5 μg/mL): 0.5%
- % Population of cells, UL Annex− 7AAD+ Necrotic ([2]; 2.5 μg/mL): 10.8%
- % Population of cells, UR Annex+ 7AAD+ Late apoptotic ([2]; 2.5 μg/mL): 1.0%
- Fold increase (wrt control), LR Annex+ 7-AAD− ([2]; 2.5 μg/mL): 5.0 fold
- Fold increase (wrt control), UL Annex− 7-AAD+ ([2]; 2.5 μg/mL): 1.0 fold
- Fold increase (wrt control), UR Annex+ 7-AAD+ ([2]; 2.5 μg/mL): 2.5 fold
- % Population of cells, LL Annex− 7AAD− Viable ([2]; 5 μg/mL): 81.3%
- % Population of cells, LR Annex+ 7AAD− Early apoptotic ([2]; 5 μg/mL): 0.4%
- % Population of cells, UL Annex− 7AAD+ Necrotic ([2]; 5 μg/mL): 15.5%
- % Population of cells, UR Annex+ 7AAD+ Late apoptotic ([2]; 5 μg/mL): 2.8%
- Fold increase (wrt control), LR Annex+ 7-AAD− ([2]; 5 μg/mL): 4.0 fold
- Fold increase (wrt control), UL Annex− 7-AAD+ ([2]; 5 μg/mL): 1.5 fold
- Fold increase (wrt control), UR Annex+ 7-AAD+ ([2]; 5 μg/mL): 7.0 fold
- % Population of cells, LL Annex− 7AAD− Viable ([2]; 10 μg/mL): 78.7%
- % Population of cells, LR Annex+ 7AAD− Early apoptotic ([2]; 10 μg/mL): 0.0%
- % Population of cells, UL Annex− 7AAD+ Necrotic ([2]; 10 μg/mL): 20.8%
- % Population of cells, UR Annex+ 7AAD+ Late apoptotic ([2]; 10 μg/mL): 0.4%
- Fold increase (wrt control), UL Annex− 7-AAD+ ([2]; 10 μg/mL): 2.0 fold
- Fold increase (wrt control), UR Annex+ 7-AAD+ ([2]; 10 μg/mL): 1.0 fold
- % Population of cells, LL Annex− 7AAD− Viable ([2]; 20 μg/mL): 71.5%
- % Population of cells, LR Annex+ 7AAD− Early apoptotic ([2]; 20 μg/mL): 0.0%
- % Population of cells, UL Annex− 7AAD+ Necrotic ([2]; 20 μg/mL): 28.1%
- % Population of cells, UR Annex+ 7AAD+ Late apoptotic ([2]; 20 μg/mL): 0.4%
- Fold increase (wrt control), UL Annex− 7-AAD+ ([2]; 20 μg/mL): 2.7 fold
- Fold increase (wrt control), UR Annex+ 7-AAD+ ([2]; 20 μg/mL): 1.0 fold
- % Population of cells, LL Annex− 7AAD− Viable ([2]; 80 μg/mL): 72.8%
- % Population of cells, LR Annex+ 7AAD− Early apoptotic ([2]; 80 μg/mL): 0.0%
- % Population of cells, UL Annex− 7AAD+ Necrotic ([2]; 80 μg/mL): 26.7%
- % Population of cells, UR Annex+ 7AAD+ Late apoptotic ([2]; 80 μg/mL): 0.5%
- Fold increase (wrt control), UL Annex− 7-AAD+ ([2]; 80 μg/mL): 2.6 fold
- Fold increase (wrt control), UR Annex+ 7-AAD+ ([2]; 80 μg/mL): 1.3 fold
- % Population of cells, LL Annex− 7AAD− Viable ([3]; 2.5 μg/mL): 75.7%
- % Population of cells, LR Annex+ 7AAD− Early apoptotic ([3]; 2.5 μg/mL): 7.9%
- % Population of cells, UL Annex− 7AAD+ Necrotic ([3]; 2.5 μg/mL): 3.2%
- % Population of cells, UR Annex+ 7AAD+ Late apoptotic ([3]; 2.5 μg/mL): 13.2%
- Fold increase (wrt control), LR Annex+ 7-AAD− ([3]; 2.5 μg/mL): 15.8 fold
- Fold increase (wrt control), UL Annex− 7-AAD+ ([3]; 2.5 μg/mL): 4.6 fold
- Fold increase (wrt control), UR Annex+ 7-AAD+ ([3]; 2.5 μg/mL): 22.0 fold
- % Population of cells, LL Annex− 7AAD− Viable ([3]; 5 μg/mL): 72.3%
- % Population of cells, LR Annex+ 7AAD− Early apoptotic ([3]; 5 μg/mL): 7.0%
- % Population of cells, UL Annex− 7AAD+ Necrotic ([3]; 5 μg/mL): 12.5%
- % Population of cells, UR Annex+ 7AAD+ Late apoptotic ([3]; 5 μg/mL): 8.2%
- Fold increase (wrt control), LR Annex+ 7-AAD− ([3]; 5 μg/mL): 14.0 fold
- Fold increase (wrt control), UL Annex− 7-AAD+ ([3]; 5 μg/mL): 17.9 fold
- Fold increase (wrt control), UR Annex+ 7-AAD+ ([3]; 5 μg/mL): 13.7 fold
- % Population of cells, LL Annex− 7AAD− Viable ([3]; 10 μg/mL): 64.1%
- % Population of cells, LR Annex+ 7AAD− Early apoptotic ([3]; 10 μg/mL): 5.8%
- % Population of cells, UL Annex− 7AAD+ Necrotic ([3]; 10 μg/mL): 20.6%
- % Population of cells, UR Annex+ 7AAD+ Late apoptotic ([3]; 10 μg/mL): 9.5%
- Fold increase (wrt control), LR Annex+ 7-AAD− ([3]; 10 μg/mL): 11.6 fold
- Fold increase (wrt control), UL Annex− 7-AAD+ ([3]; 10 μg/mL): 29.4 fold
- Fold increase (wrt control), UR Annex+ 7-AAD+ ([3]; 10 μg/mL): 15.8 fold
- % Population of cells, LL Annex− 7AAD− Viable ([3]; 20 μg/mL): 58.5%
- % Population of cells, LR Annex+ 7AAD− Early apoptotic ([3]; 20 μg/mL): 2.9%
- % Population of cells, UL Annex− 7AAD+ Necrotic ([3]; 20 μg/mL): 32.7%
- % Population of cells, UR Annex+ 7AAD+ Late apoptotic ([3]; 20 μg/mL): 5.9%
- Fold increase (wrt control), LR Annex+ 7-AAD− ([3]; 20 μg/mL): 5.8 fold
- Fold increase (wrt control), UL Annex− 7-AAD+ ([3]; 20 μg/mL): 46.7 fold
- Fold increase (wrt control), UR Annex+ 7-AAD+ ([3]; 20 μg/mL): 9.8 fold
- % Population of cells, LL Annex− 7AAD− Viable ([3]; 80 μg/mL): 61.0%
- % Population of cells, LR Annex+ 7AAD− Early apoptotic ([3]; 80 μg/mL): 5.3%
- % Population of cells, UL Annex− 7AAD+ Necrotic ([3]; 80 μg/mL): 26.0%
- % Population of cells, UR Annex+ 7AAD+ Late apoptotic ([3]; 80 μg/mL): 7.7%
- Fold increase (wrt control), LR Annex+ 7-AAD− ([3]; 80 μg/mL): 10.6 fold
- Fold increase (wrt control), UL Annex− 7-AAD+ ([3]; 80 μg/mL): 37.1 fold
- Fold increase (wrt control), UR Annex+ 7-AAD+ ([3]; 80 μg/mL): 12.8 fold
- % Cytotoxicity [4]: 47.5%
